Assay results as given in patent US20160082114A1 (published 2016).
Where two headings read alike, the source gives them in different places.

B1: huMOV19-14 conjugate (antibody, V domains shown)
VH: QVQLVQSGAEVVKPGASVKISCKASGYTFTGYFMNWVKQSPGQSLEWIGRIHPYDGDTFYNQKFQGKATLTVDKSSNTAHMELLSLTSEDFAVYYCTRYDGSRAMDYWGQGTTVTVSS
VL: DIVLTQSPLSLAVSLGQPAIISCKASQSVSFAGTSLMHWYHQKPGQQPRLLIYRASNLEAGVPDRFSGSGSKTDFTLTISPVEAEDAATYYCQQSREYPYTFGGGTKLEIKR
B2: huMOV19-90 conjugate (antibody, V domains shown)
VH: B1 VH
VL: B1 VL

Assays:
[1] = biological target: T1, folate receptor 1 (FOLR1) (human, UniProt P15328 25-234); assay: flow cytometry, T47D cells
T1 sequence (P15328 25-234): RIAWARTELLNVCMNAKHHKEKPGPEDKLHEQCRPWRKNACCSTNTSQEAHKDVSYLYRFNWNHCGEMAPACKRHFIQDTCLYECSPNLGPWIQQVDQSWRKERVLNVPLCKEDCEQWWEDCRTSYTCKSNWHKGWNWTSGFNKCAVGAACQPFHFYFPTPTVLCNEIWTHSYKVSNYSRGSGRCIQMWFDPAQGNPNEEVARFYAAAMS

[2] = biological target: T1, folate receptor 1 (FOLR1); assay: flow cytometry, T47D cells; remark: listed apart in the source

| Binder | EC50 [1] [nM] | EC50 [2] [nM] |
| --- | --- | --- |
| B1 | 0.379 |  |
| B2 |  | 0.371 |
